Data taken from US20260209330A1, “S100A7 AS A DIAGNOSTIC MARKER AND THERAPEUTIC TARGET FOR DISORDERS” (Ohio State Innovation Foundation, priority 2022, published 2026).

How the values were obtained:
[1] = breast cancer patients; reported; cited from earlier work
[2] = HFD-induced obesity in wild type female FVB mice; format: in vivo, mouse; settings: FVB mice on HFD; nAb i.p. two times a week, alone or with reboxetine 20 mg/kg·bt i.p. twice a week; vs control IgG treated group
Protocol: (§1) FIGS. 10C, 10D, 10E, 10F, and 10G show the analysis of body weight, vWAT mass (gm), tumor volume, tumor weight (gm), and Lung metastasis of VC, S100A7 nAb, Reb and combo-treated animals. *P<0.05, ** P<0.01. One way ANOVA was used for calculating statistical significance. Mouse models, obesity tumor growth analyses and flow cytometry. The NCG and wild-type 6 weeks old female FVB mice (6 weeks old) were obtained from the Charles River. S100A7 overexpressing MDA-MB-231 cells (1×10^6) were injected into the 4th mammary fat pad of NCG mice. While Mvt1 cells (1×10^5) were injected into the mammary fat pad of wild type FVB mice fed with HFD. […] Mvt-1 cells (1×10^5) were also injected into the mammary glands of S100A7 floxed (control) and KO mice. Body weights and tumors were measured weekly, and volume was calculated. In the endpoints, animals were sacrificed, and tumors and other organs were excised. All mice were kept in The OSU's animal facility in compliance with the guidelines and protocols approved by the OSU-IACUC. For flow cytometry, freshly prepared single-cell suspensions of spleen samples harvested from non-tumor bearing S100A7 floxed and KO mice were incubated with an Fc receptor blocker followed by staining with different fluorochrome-conjugated antibodies (Table 1). After staining, cells were evaluated by FACS Fortessa using CellQuest software (BD Biosciences)

Mvt1 cells = test: Mvt1-generated syngeneic breast tumor model in HFD-induced obese mice; format: in vivo, mouse; settings: HFD-induced obese FVB mice with Mvt1 tumors; nAb i.p. two times a week, alone or with reboxetine 20 mg/kg·bt i.p. twice a week
Protocol: as §1

MDA-MB-231 cells [3] = test: Trans-well migration assay; format: cell-based; settings: nAb clone 28F8-2 300 ng/μl; recombinant human S100A7 100 ng/ml; overnight, transwell chambers
Protocol: (§2) MDA-MB-231 cells were treated with hS100A7 neutralizing antibody (clone 28F8-2; 300 ng/μl) or control IgG or PBS in the presence or absence of recombinant human S100A7 (100 ng/ml) and spheroid invasion assay was performed by using 3D-Cultrex spheroid invasion kit. […] FIG. 9B show the bar diagram representing the invaded area of spheroids. The area between red and blue circles represents the invaded area. […] GAPDH was used as a loading control. S100A7 overexpressing MDA-MB-231 cells (1×10^6) were injected into the female NCG mice. After the onset of palpable tumors, mice were either treated with vehicle control (VC), S100A7 nAb ([…], i.p. route; clone 28F8-2; two times a week) alone or in combination with ASB-14780 (50 mg/kg·bt, oral route; three times a week). […] FIGS. 9F, 9G, and 9H show the analysis of tumor volume, tumor weight, and liver metastasis of control IgG, S100A7 nAb, ASB-14780, and combination-treated. *** is p<0.001; **** is p<0.0001. One way ANOVA and t test were used for calculating statistical significance.
(§3) Trans-well migration assay and 3D-Spheroid invasion assay. MDA-MB-231 cells were treated with hS100A7 neutralizing antibody (clone 28F8-2; 300 ng/μl) or control IgG or PBS in the presence or absence of recombinant human S100A7 (100 ng/ml). […] On the 10th day, the invaded area was calculated by using the image-J plugin.

PD-L1 = test: S100A7-induced PD-L1 expression by Western blot; format: cell-based; settings: MDA-MB-231 cells; nAb clone 28F8-2 300 ng/μl; recombinant human S100A7 100 ng/ml; GAPDH loading control
Protocol: as §2
Western blotting, adipokine array and Immunohistochemistry (IHC). Cell or tissue lysates were analyzed by Western blotting. Briefly, samples were run on NuPAGE 4-12% gradient precast gels (Invitrogen) and probed with primary antibodies (Table 1), followed by secondary antibodies incubation, and were developed. […]

MDA-MB-231 cells [4] = test: 3D-Spheroid invasion assay (3D-Cultrex spheroid invasion kit); format: cell-based; settings: nAb clone 28F8-2 300 ng/μl; recombinant human S100A7 100 ng/ml; vs control IgG or PBS; invaded area on 10th day
Protocol: as §2, §3

Molecule	depressive symptoms [1]	tolerability [1]	HFD-induced body weight gain [2]	visceral fat accumulation (vWAT mass) [2]	lung metastasis (Mvt1 cells)	tumor growth (tumor volume, tumor weight) (Mvt1 cells)	S100A7-mediated migration of TNBC cells (MDA-MB-231 cells [3])	S100A7-induced PD-L1 expression (PD-L1)	S100A7-mediated invasiveness of spheroid cells (invaded area) (MDA-MB-231 cells [4])
CCOc1ccccc1OC(c1ccccc1)C1CNCCO1 (stereo not drawn) [reboxetine]	reduces	well tolerated	–	–	–	–	–	–	–
S100A7 nAb: novel monoclonal S100A7 neutralizing antibody, hybridoma clone 28F8-2; heavy chain SEQ ID NO: 4, light chain SEQ ID NO: 8 (antibody, Description of sequence: Heavy Chain; Description of sequence: Light Chain) heavy: MRVLILLWLFTAFPGILSDVQLQESGPGLVKPSQSLSLTCTVTGYSITSDYAWNWIRQFPGNKLEWMGYISYSGYTSYNPSLKSRISITRDTSKNQFFLQLNSVTTEDTTTYYCTRGGKGPMDYWGQGTSVTVSSAKTTPPSVYPLAPGSAAQTNSMVTLGCLVKGYFPEPVTVTWNSGSLSSGVHTFPAVLQSDLYTLSSSVTVPSSTWPSETVTCNVAHPASSTKVDKKIVPRDCGCKPCICTVPEVSSVFIFPPKPKDVLTITLTPKVTCVVVDISKDDPEVQFSWFVDDVEVHTAQTQPREEQFNSTFRSVSELPIMHQDWLNGKEFKCRVNSAAFPAPIEKTISKTKGRPKAPQVYTIPPPKEQMAKDKVSLTCMITDFFPEDITVEWQWNGQPAENYKNTQPIMDTDGSYFVYSKLNVQKSNWEAGNTFTCSVLHEGLHNHHTEKSLSHSPGK light: MKSQTQVFVFLLLCVSGAHGSIVMTQTPKFLLVSAGDRVTITCKASQSVSNDVAWYHQKPGQSPKLLIYYASNRYTGVPDRFTGSGYGTDFTFTISTVQAEDLAVYFCQQDYSSPYTFGGGTKLEIKRADAAPTVSIFPPSSEQLTSGGASVVCFLNNFYPKDINVKWKIDGSERQNGVLNSWTDQDSKDSTYSMSSTLTLTKDEYERHNSYTCEATHKTSTSPIVKSFNRNEC	–	–	significantly inhibited	significantly inhibited	significantly reduced	significantly reduced	inhibits	decreases	reduced
